The values that follow come from CN114146174A (HEADA BIOPHARMACEUTICAL SUZHOU CO LTD, dated 2022).

One assay has as its target T1, 人OX40抗原(购自Sino) (human, UniProt P43489 29-216, limits assumed).
T1 construct: Bought antigen coated on the ELISA plate; also called human OX40; CD134
T1 sequence (looked up): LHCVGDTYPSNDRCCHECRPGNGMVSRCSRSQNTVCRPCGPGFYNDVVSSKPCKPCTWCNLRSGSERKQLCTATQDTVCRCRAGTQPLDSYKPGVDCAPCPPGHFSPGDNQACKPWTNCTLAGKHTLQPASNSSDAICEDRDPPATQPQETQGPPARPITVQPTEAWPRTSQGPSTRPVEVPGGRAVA
Briefly: direct ELISA on coated human OX40 antigen; relative binding activity after 1 month at 40℃±2℃, pH 5.0-7.0 samples. (In general: ELISA stands for enzyme-linked immunosorbent assay.)

A further assay concerns the target T2, 人PD-L1抗原(购自Promega) (human, UniProt Q9NZQ7 19-238, limits assumed).
T2 construct: Bought antigen coated on the ELISA plate; also called human PD-L1; CD274
Briefly: direct ELISA on coated human PD-L1 antigen; relative binding activity after 1 month at 40℃±2℃, pH 5.0-7.0 samples.

T2 sequence (Q9NZQ7 19-238 limits assumed): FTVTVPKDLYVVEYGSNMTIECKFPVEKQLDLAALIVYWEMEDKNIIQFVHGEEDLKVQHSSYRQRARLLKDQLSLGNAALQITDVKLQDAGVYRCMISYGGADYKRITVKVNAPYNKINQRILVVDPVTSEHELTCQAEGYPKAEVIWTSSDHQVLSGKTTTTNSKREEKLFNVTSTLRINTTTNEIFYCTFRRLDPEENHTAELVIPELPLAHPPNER

B1: 抗PD-L1/OX40双特异性抗体 (bispecific antibody, human IgG2, kappa)
heavy: QVQLVQSGAEVKKPGASVKVSCKASGYTFTSYYMHWVRQAPGQGLEWMGIINPSGGSTSYAQKFQGRVTMTRDTSTSTVYMELSSLRSEDTAVYYCARDHASSSWYTTHLDLWGRGTLVTVSSASTKGPSVFPLAPCSRSTSESTAALGCLVKDYFPEPVTVSWNSGALTSGVHTFPAVLQSSGLYSLSSVVTVPSSNFGTQTYTCNVDHKPSNTKVDKTVERKCCVECPPCPAPPVAGPSVFLFPPKPKDTLMISRTPEVTCVVVDVSHEDPEVQFNWYVDGVEVHNAKTKPREEQFNSTFRVVSVLTVVHQDWLNGKEYKCKVSNKGLPAPIEKTISKTKGQPREPQVYTLPPSREEMTKNQVSLTCLVKGFYPSDIAVEWESNGQPENNYKTTPPMLDSDGSFFLYSKLTVDKSRWQQGNVFSCSVMHEALHNHYTQKSLSLSPGGGGGSGGGGSQVQLQESGGGLVQPGGSLRLSCAASAYTISRNSMGWFRQAPGKGLEGVAAIESDGSTSYSDSVKGRFTISLDNSKNTLYLEMNSLRAEDTAVYYCAAPKVGLGPRTALGHLAFMTLPALNYWGQGTLVTVSS
light: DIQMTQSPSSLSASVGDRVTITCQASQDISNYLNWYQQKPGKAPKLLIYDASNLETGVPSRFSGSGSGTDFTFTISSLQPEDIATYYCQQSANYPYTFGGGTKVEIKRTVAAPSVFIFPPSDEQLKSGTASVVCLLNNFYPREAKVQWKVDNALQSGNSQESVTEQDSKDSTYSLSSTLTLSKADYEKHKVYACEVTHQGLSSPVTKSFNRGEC
notes: also called 重组抗肿瘤坏死因子受体超家族成员4(OX40)和抗程序性死亡配体1(PD-L1)双特异性抗体; anti-PD-L1/OX40 bispecific antibody
For B1, the binding result with 人OX40抗原(购自Sino) and with 人PD-L1抗原(购自Promega) was “binds” in each case.
